B1: Poly(rC)-binding protein 1, residues 278 to 350; numbered along this chain, Q15365 (parent)
chain: TQTTHELTIPNNLIGCIIGRQGANINEIRQMSGAQIKIANPVEGSSGRQVTITGSAASISLAQYLINARLSSE
B2: Histidine--tRNA ligase, cytoplasmic, residues 8 to 45; numbered along this chain, P12081 (parent)
chain: EELVKLQGERVRGLKQQKASAELIEEEVAKLLKLKAQL

Variants of: B1
Assay: abundance fitness (aPCA) (normalised: wild type 0, dead -1); higher = more abundant; growth selection in yeast, the domain comes from the species named
Conditions: Homo sapiens

Abundance fitness of substitutions, site by site:
I9: H -0.039, C -0.839, G -0.771, M -0.356, D -0.714, F 0.066, L -0.072, N -0.805, E -0.942, A -0.688
T1: S 0.012, P -0.141, N 0.194, Y -0.072, M 0.058, V 0.061, I 0.094, K -0.191, E 0.106, A -0.086, W -0.287, C -0.218, D 0.167, G -0.02, Q -0.559
T8: G -0.559, W -0.064, C 0.098, Q -0.076, R -0.028, H 0.017, S -0.074, I -0.008, K -0.128, V 0.207, Y 0.05, A -0.124, L -0.032, D 0.144, N 0.081, E 0.069, M 0.028
T4: H -0.26, Q -0.087, S 0.008, R -0.155, L -0.217, E -0.113, P -0.271, V -0.088, M -0.189, D -0.284, I -0.292, F -0.182, N -0.138, Y 0.013, A -0.109, W -0.31
E6: H 0.232, T 0.294, C 0.168, S 0.08, V 0.135, R 0.164, F -0.088, P -0.965, M 0.07, Q 0.156, W -0.102, I 0.116, K 0.113, Y 0.218, N 0.161, A 0.002
T3: D 0.053, E 0.285, N 0.113, Q 0.11, M 0.161, S 0.119, C -0.009, P -0.16, V 0.023, L 0.079, I -0.345, G 0.167, Y -0.221, A 0.048, R 0.119, K 0.257, H 0.147
Q2: T 0.142, D 0.052, R 0.054, E -0.077, W 0.017, V 0.015, C -0.263, Y 0.082, I 0.118, A -0.177, G 0.031, M 0.075, P -0.128, K 0.101
H5: G -0.081, W 0.091, D -0.323, N -0.173, A 0.139, P -0.699, V 0.217, E -0.073, M 0.136, C 0.104, K 0.107, T 0.066, I 0.113, F -0.32, S 0.091, Q 0.253, R 0.091, Y -0.083
L7: Q -0.382, F -0.051, G -0.517, E -0.331, H -0.744, K -0.53, I -0.013, Y -0.436, N -0.803, V -0.043, M 0.113, R -0.354, S -0.468, T -0.447, A -0.504, W -0.274, P -1.03, C -0.208, D -0.616

Variants of: B2
Assay: as above
Conditions: Homo sapiens

Abundance fitness: each site, then its substitutions
E26: S 0.184, R 0.1, W -0.594, P -0.024, Q 0.139, V -0.116
E27: T -0.798, H -0.436, P -0.214, N -0.079, S -0.291, W -1.11, V -1.1, K -0.649, M -0.874, I -1.47, R -0.741, A -0.108
A29: T -0.26, H -0.265, D 0.106, L -0.462, P -0.37, F -0.8, N -0.183, Q 0.07, M -0.069, V -0.277, K -0.299, C -0.415, R -0.189, G -0.092, I -0.618, W -0.804
L34: P 0.209, W -0.237, M 0.121, D 0.05, V -0.064, R -0.151, I -0.176, K -0.1, E 0.083, C -0.197, Q 0.061, Y -0.093, T -0.066, A -0.054, F -0.148, H -0.06, G -0.128
V28: D 0.152, S 0.094, M 0.06, K 0.107, F -0.378, C -0.076, N 0.081, A 0.177, G -0.195, E 0.316, H -0.012, Q 0.366, L -0.271, R -0.027, I -0.303, T 0.159, P -0.119
K30: M -0.234, H -0.247, T -0.246, G -0.364, S -0.218, W -0.639, R -0.204, V -0.136, Q -0.102, P -0.219, Y -0.484, L -0.211, F -0.722, I -0.232, D 0.072, E 0.1, A -0.04, N -0.119, C -0.411
L38: S 0.009, V -0.209, W -0.154, N -0.05, F -0.526, D 0.003, K 0.14, P -0.026, M 0.193, H -0.012, A 0.15, E 0.204, I -0.389, T 0.034, Q 0.166, R -0.067
K33: Q 0.037, V -0.436, P -0.056, F -0.338, I -0.407, T -0.093, R -0.109, Y -0.313, L -0.34, A -0.081, N -0.203, H -0.039, G -0.147, C -0.451, S 0.071, E 0.226
Q37: G 0.191, F -0.693, N -0.04, E 0.28, H -0.224, M -0.02, T -0.113, K 0.041, Y -0.532, D 0.119, V -0.173, P 0.083, L -0.164, C -0.057, R -0.143, S 0.065, I -0.29, A 0.152
K35: Y -0.518, F -0.893, C 0.383, N 0.597, G 0.78, I -0.335, A 0.627, M 0.277, W -0.936, H -0.532, D 0.227, L -0.051, R -0.005, P 0.394, V 0.271, S 0.611, E 0.193, T 0.392, Q 0.414
L31: R -0.126, A -0.084, T -0.058, N 0.22, W -0.172, G -0.044, Y -0.199, P 0.123, V -0.436, F -0.397, K 0.002, H -0.144, Q 0.087, D 0.222, I -0.426, S 0.026, C -0.187, E 0.257, M -0.338
L32: R 0.096, K 0.105, D 0.174, I -0.093, V -0.076, N 0.247, F -0.289, A 0.227, H 0.08, T 0.117, S 0.112, M 0.206, Q 0.201, C 0.116, W -0.098, P 0.098, G 0.121

— the Human Domainome abundance scans (Beltran et al. 2025)
